What was measured:
Test in all cases: cell-based or functional assay
[1] = biological target: HIV-1 Env of ZM106.9.SG3 pseudovirus (clade C) (HIV-1)
[2] = biological target: HIV-1 Env of ZM215.8.SG3 pseudovirus (clade C) (HIV-1)
[3] = biological target: HIV-1 Env of YU2.DG.SG3 pseudovirus (clade B) (HIV-1) (UniProt P35961)
[4] = biological target: HIV-1 Env of TH966.8.SG3 pseudovirus (clade AE) (HIV-1)
[5] = biological target: HIV-1 Env of PVO.04.SG3 pseudovirus (clade B) (HIV-1)
[6] = biological target: HIV-1 Env of KER2008.12.SG3 pseudovirus (clade A) (HIV-1)
[7] = biological target: HIV-1 Env of 6095.V1.C10.SG3 pseudovirus (clade ACD) (HIV-1)
[8] = biological target: HIV-1 Env of CNE31.SG3 pseudovirus (clade C) (HIV-1)
[9] = biological target: HIV-1 Env of 6101.10.SG3 pseudovirus (clade B) (HIV-1)

10E8v4 S100cY (antibody), sequence (VH): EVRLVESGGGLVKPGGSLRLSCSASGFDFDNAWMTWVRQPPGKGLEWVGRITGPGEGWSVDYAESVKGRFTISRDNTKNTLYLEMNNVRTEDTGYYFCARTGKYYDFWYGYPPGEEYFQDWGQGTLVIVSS
10E8v4 S100cY (antibody), sequence (VL): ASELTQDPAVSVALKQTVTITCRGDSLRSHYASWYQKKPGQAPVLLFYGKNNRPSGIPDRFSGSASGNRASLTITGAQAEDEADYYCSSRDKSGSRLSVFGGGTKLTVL
10E8v4 S100cL (antibody), sequence (VH): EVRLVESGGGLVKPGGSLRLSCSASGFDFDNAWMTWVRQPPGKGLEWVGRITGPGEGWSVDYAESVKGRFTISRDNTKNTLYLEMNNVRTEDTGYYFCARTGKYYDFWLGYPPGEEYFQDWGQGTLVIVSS
10E8v4 S100cL (antibody), sequence (VL): as the sequence (VL) above
10E8v4 S100cR (antibody), sequence (VH): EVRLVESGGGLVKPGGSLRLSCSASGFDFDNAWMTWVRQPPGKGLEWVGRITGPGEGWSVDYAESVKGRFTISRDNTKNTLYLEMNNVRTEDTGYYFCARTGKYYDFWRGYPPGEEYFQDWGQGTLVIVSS
10E8v4 S100cR (antibody), sequence (VL): as the sequence (VL) above

| Substance | IC50, pseudovirus neutralization [1] | IC80, pseudovirus neutralization [1] | IC50, pseudovirus neutralization [2] | IC80, pseudovirus neutralization [2] | IC50, pseudovirus neutralization [3] | IC80, pseudovirus neutralization [3] | IC50, pseudovirus neutralization [4] | IC80, pseudovirus neutralization [4] | IC50, pseudovirus neutralization [5] | IC80, pseudovirus neutralization [5] | IC50, pseudovirus neutralization [6] | IC80, pseudovirus neutralization [6] | IC50, pseudovirus neutralization [7] | IC80, pseudovirus neutralization [7] | IC50, pseudovirus neutralization [8] | IC80, pseudovirus neutralization [8] | IC50, pseudovirus neutralization [9] | IC80, pseudovirus neutralization [9] |
| --- | --- | --- | --- | --- | --- | --- | --- | --- | --- | --- | --- | --- | --- | --- | --- | --- | --- | --- |
| 10E8v4 S100cL (antibody) | > 50 µg/mL | > 50 µg/mL | 0.015 µg/mL | 0.095 µg/mL | 0.333 µg/mL | 1.75 µg/mL | 0.011 µg/mL | 0.079 µg/mL | 0.507 µg/mL | 2.21 µg/mL | > 50 µg/mL | > 50 µg/mL | 0.001 µg/mL | 0.002 µg/mL | 0.354 µg/mL | 1.01 µg/mL | 0.007 µg/mL | 0.049 µg/mL |
| 10E8v4 S100cR (antibody) | > 50 µg/mL | > 50 µg/mL | 0.363 µg/mL | 1.34 µg/mL | 3.87 µg/mL | 12 µg/mL | 0.168 µg/mL | 0.648 µg/mL | 6.45 µg/mL | 25 µg/mL | > 50 µg/mL | > 50 µg/mL | 0.011 µg/mL | 0.048 µg/mL | 2.54 µg/mL | 8.42 µg/mL | 0.176 µg/mL | 0.891 µg/mL |
| 10E8v4 S100cY (antibody) | > 50 µg/mL | > 50 µg/mL | 0.028 µg/mL | 0.129 µg/mL | 0.376 µg/mL | 2.25 µg/mL | 0.011 µg/mL | 0.075 µg/mL | 0.412 µg/mL | 3.44 µg/mL | > 50 µg/mL | > 50 µg/mL | 0.001 µg/mL | 0.006 µg/mL | 0.368 µg/mL | 1.39 µg/mL | 0.009 µg/mL | 0.063 µg/mL |

Reference: patent publication US20190077849A1
